Measured values from patent publication US20230074436A1 (DENALI THERAPEUTICS, published 2023).
Read-outs that look alike come from different tables or passages of the source.

B1: 1H5 (antibody, rat IgG2b, V domains shown)
VH: AVQLVESGGGLVQPKESLKISCAASGFTFSDAAMYWVRQAPGKGLELVARIRTKPNNYATYYADSVKGRFTISRDDSKSMVYLQMGNLKTEDTAMYYCSADFHYFDYWGQGVMVTVSS
VL: DIQMTQSPSVLSASVGDRVTLSCKAGQNINKNLDWYQQKLGEAPKLLISFTNNLQTGVPSRFSGSGSGSDYTLTISSLQPEDVATYYCYQYNSGWTFGGGTKLELK
notes: also called clone 1H5
B2: 16F3 (antibody, IgG2a, V domains shown)
VH: AVQLVESGGGLVQPKESLKISCAASGFTFSNGAMNWVRQAPGKGLEWVARIRTKPNNYATYYADSVKGRFTISRDDSKSMVYLQMDDLKTEDTAMYYCTADGATPFAYWGQGTLVTVSS
VL: DVVLTQTPPTLSATIGQSVSISCRSSQSLLHSNGNTYLHWLLQRPGQSPQLLIYLVSRLESGVPNRFSGSGSGTDFTLKISGVEAEDLGVYYCVQGTHAPFTFGSGTKLEIK
notes: also called clone 16F3
B3: 18B4 (antibody, IgG2b, V domains shown)
VH: EVQLVESGGGLVQPGRSLKLSCAASGFTFSSFAMAWVRQAPKKGLEWVATITSGGSKTYYPDSVKGRFTISRDNAKSTLYLQMDSLRSEDTATYYCAKGYFDYWGQGVMVTVSS
VL: DVVLTQTPPTLSATIGQSVSISCRSSQSLLHSNGNTYLHWLLQRPGQSPQLLIYLVSRLESGVPNRFSGSGSGTDFTLKISGVEAEDLGVYYCVQGTHAPLTFGSGTKLEIK
notes: also called clone 18B4
B4: 22E11 (antibody, IgG1, V domains shown)
VH: AVQLVESGGGLVQPKESLKISCAASGFTFSTAAMYWVRQAPGKGLEWVTRIRTKPNNYATYYADSVKGRFTISRDDSKSMVYLQMDNLKTEDTAMYYCTADYYDGTPFAYWGQGTLVTVSS
VL: AVVMTQTPVSLSVSLGGQVSISCRSSQSLVHNNGITYLSWYLQKPGQSPQLPIYKVSNRFSGFSDRFSGGGSGTDFTLKISRVEPDDLGLYYCGQGTQYPYTFGAGTKLELK
notes: also called clone 22E11

What was measured:
[1] = biological target: human alpha-synuclein oligomers (human, UniProt P37840 1-140); test: competition ELISA: oligomers titrated in solution against 0.6 nM antibody, free antibody read on aSyn-coated plate
Method: To measure the binding affinities of select antibodies toward oligomeric alpha-synuclein protein, purified antibodies were probed with different concentrations of human alpha-synuclein oligomers in solution, and the levels of unbound antibody were measured by ELISA analysis. In this experiment, 0.6 nM (0.1 pg/mL) of purified antibody was dissolved in phosphate-buffered saline (PBS) solution. […] The mixtures were gently shaken at room temperature for 1 hour to reach equilibrium. After that, these samples were transferred to an alpha-synuclein protein-coated ELISA plate, and antibody not bound to antigen in the previous solution was detected by direct ELISA.

rat alpha-synuclein [2] = biological target: T1, rat alpha-synuclein (rat, UniProt P37377 1-140); test: direct ELISA on coated antigen;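 also: plates coated with recombinant human, mouse or rat alpha-synuclein, purified antibody titrated 10 µg/mL down to 0.6 ng/mL for 1 h, bound antibody detected by anti-rat HRP with TMB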
Method: (§1) 96-well Nunc plates were coated with 50 μL of recombinant human, mouse, or rat alpha-synuclein at a concentration of 1 μg/mL in PBS at 4° C. overnight. The plates were then washed three times with PBST and blocked with PBS containing 3% BSA at room temperature for 1 hour. Purified antibody was diluted by serial dilution methods, from 10 μg/mL to 0.6 ng/mL, and 50 μL of the antibody solution was added to the alpha-synuclein-coated wells. The plates were incubated for 1 hour at room temperature, then washed three times with PBST. Secondary detection antibody (goat anti-rat HRP (obtained from Southern Biotech)) was added 50 μL/well, 1:5,000 diluted in BSA-PBS solution. Plates were incubated for 1 hour at room temperature, then washed three times with PBST. Plates were subsequently developed with 50 μL/well of TMB substrate (Thermo Fisher) and quenched with 50 μL/well of 1 N sulfuric acid. The signal was quantified on a BioTek® plate reader at A450.

[3] = biological target: T2, human alpha-synuclein monomer (human, UniProt P37840 1-140); test: direct ELISA on coated antigen;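 also: plates coated with recombinant human, mouse or rat alpha-synuclein, purified antibody titrated 10 µg/mL down to 0.6 ng/mL for 1 h, bound antibody detected by anti-rat HRP with TMB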
Method: as §1

mouse alpha-synuclein [4] = biological target: T3, mouse alpha-synuclein (mouse, UniProt O55042 1-140); test: direct ELISA on coated antigen;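 also: plates coated with recombinant human, mouse or rat alpha-synuclein, purified antibody titrated 10 µg/mL down to 0.6 ng/mL for 1 h, bound antibody detected by anti-rat HRP with TMB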
Method: as §1

[5] = biological target: T2, human alpha-synuclein monomer; test: ELISA, coated human alpha-synuclein
[6] = biological target: T4, alpha-synuclein peptide 61-140 (human); test: ELISA, plate coated with the peptide or protein, antibody titrated, anti-rat HRP, A450
T4 construct: synthetic peptide coated on plate
Method: (§2) 96-well Nunc plates were coated with 1 pg/mL of the indicated synthetic peptide in PBS 50 μL/well overnight. The plates were washed three times with PBST, then blocked with 150 μL of 3% BSA in PBS for 1 hour. Purified antibody was diluted by serial dilution methods, from 10 pg/mL to 0.6 ng/ml, and 50 μL of the antibody solution was added to the peptide-coated wells. The plates were incubated for 1 hour at room temperature, then washed three times with PBST. Secondary detection antibody, goat anti-rat HRP (obtained from Southern Biotech) 1:5,000 diluted in BSA-PBS, was added to a concentration of 50 μL/well. Plates were incubated for one hour and washed three times with PBST. Plates were then developed with 50 μL/well of TMB substrate (obtained from Thermo Fisher) and quenched with 50 μL/well of 1 N sulfuric acid. The signal was quantified on a BioTek® plate reader at A450.

[7] = biological target: T5, alpha-synuclein peptide 95-140 (human); test: as above
T5 construct: synthetic peptide coated on plate
Method: as §2

[8] = biological target: alpha-synuclein peptide 1-112 (human); test: as above
Method: as §2

[9] = biological target: T6, alpha-synuclein peptide 1-61 (human); test: as above
T6 construct: synthetic peptide coated on plate
Method: as §2

[10] = biological target: T2, human alpha-synuclein monomer; test: as above
Method: as §2

[11] = biological target: T7, alpha-synuclein peptide 1-95 (human); test: as above
T7 construct: synthetic peptide coated on plate
Method: as §2

gamma-synuclein protein = biological target: T8, gamma-synuclein protein (human, UniProt O76070 1-127); test: ELISA on coated synuclein, 1 ug/mL
T8 construct: species read from 'recombinant human alpha-synuclein protein, beta-synuclein protein, and gamma-synuclein protein'
Method: (§3) Binding to different synuclein species was tested using a method similar to the ELISA format described above. Briefly, recombinant human alpha-synuclein protein, beta-synuclein protein, and gamma-synuclein protein was coated onto 96-well Nunc plates at 1 μg/mL. The plates were washed with PBST and blocked with 150 μL of 3% BSA in PBS. The serial dilutions of purified antibodies were applied onto the plate, and the associated antibody was detected with goat anti-rat HRP secondary antibody.

beta-synuclein protein = biological target: T9, beta-synuclein protein (human, UniProt Q16143 1-134); test: ELISA on coated synuclein, 1 ug/mL
T9 construct: species read from 'recombinant human alpha-synuclein protein, beta-synuclein protein, and gamma-synuclein protein'
Method: as §3

[12] = biological target: T2, human alpha-synuclein monomer; test: SPR (Biacore), antibody captured, monomer injected, 1:1 fit
Method: (§4) Anti-mouse Fc antibody (obtained from GE Healthcare) was immobilized on the surface of a CM5 chip (obtained from GE Healthcare) through amine-coupling to reach about 6,000 to 8,000 response units (RU). The surface was activated by injection of a mixture of 1-ethyl-3-(3-dimethylaminopropyl)-carbodiimide (EDC) and N-hydroxysuccinimide (NETS), both obtained from GE Healthcare, for 7 minutes at room temperature. […] Both injections were done at room temperature.
(§5) Purified rat anti alpha-synuclein antibody (10 μg/mL) was injected at room temperature and captured to reach 1,000 to 2,000 RU. […] Sensorgrams were fitted using a 1:1 Langmuir model to estimate kₒₙ and koff.

mouse alpha-synuclein [13] = biological target: T3, mouse alpha-synuclein; test: ELISA, coated mouse alpha-synuclein
Method: as §1

[14] = biological target: human alpha-synuclein pre-formed fibrils (human, UniProt P37840 1-140); test: competition ELISA: fibrils titrated in solution against 0.6 nM antibody, free antibody read on aSyn-coated plate
Method: Purified antibody was probed with different concentrations of alpha-synuclein fibrils in solution, and the levels of unbound antibody were measured by ELISA analysis. In this experiment, 0.6 nM (0.1 μg/mL) of purified antibody was dissolved in phosphate-buffered saline (PBS) solution. […] The mixtures were gently shaken at room temperature for 1 hour to reach equilibrium. After that, these samples were transferred to an alpha-synuclein protein-coated ELISA plate and incubated for 5 minutes. During this short incubation, antibody that was not associated to antigen in the previous solution could instead bind onto the plate, and thus be quantified using a standard ELISA technique. By this means, it was possible to determine the amount of free antibody in the initial mixture with alpha-synuclein fibrils at indicated concentrations.

[15] = biological target: alpha-synuclein phosphorylated at serine 129 (human, UniProt P37840 1-140); test: SPR (Biacore), antibody captured, p129-Syn injected
Method: as §4, §5

[16] = biological target: T2, human alpha-synuclein monomer; test: direct ELISA, plate coated with 1 µg/mL recombinant human alpha-synuclein, antibody titrated, anti-rat HRP, A450
Method: as §1

[17] = biological target: alpha-synuclein peptide 1-112 (human); test: peptide ELISA
Method: as §2

[18] = biological target: T6, alpha-synuclein peptide 1-61; test: peptide ELISA
Method: as §2

[19] = biological target: T7, alpha-synuclein peptide 1-95; test: peptide ELISA
Method: as §2

[20] = biological target: T4, alpha-synuclein peptide 61-140; test: peptide ELISA, coated fragment
Method: as §2

[21] = biological target: T5, alpha-synuclein peptide 95-140; test: peptide ELISA, coated fragment
Method: as §2

[22] = biological target: T5, alpha-synuclein peptide 95-140; test: ELISA, plate coated with the peptide or protein, antibody titrated, anti-rat HRP, A450; remark: listed apart in the source
Method: as §2

[23] = biological target: T6, alpha-synuclein peptide 1-61; test: as above; remark: listed apart in the source
Method: as §2

rat alpha-synuclein [24] = biological target: T1, rat alpha-synuclein; test: direct ELISA, plate coated with 1 µg/mL recombinant rat alpha-synuclein, antibody titrated, anti-rat HRP, A450
Method: as §1

mouse alpha-synuclein [25] = biological target: T3, mouse alpha-synuclein; test: direct ELISA, plate coated with 1 µg/mL recombinant mouse alpha-synuclein, antibody titrated, anti-rat HRP, A450
Method: as §1

[26] = biological target: T4, alpha-synuclein peptide 61-140; test: ELISA, plate coated with the peptide or protein, antibody titrated, anti-rat HRP, A450; remark: listed apart in the source
Method: as §2

[27] = biological target: T5, alpha-synuclein peptide 95-140; test: as above; remark: listed apart in the source
Method: as §2

[28] = biological target: T6, alpha-synuclein peptide 1-61; test: as above; remark: listed apart in the source
Method: as §2

[29] = biological target: T2, human alpha-synuclein monomer; test: as above; remark: listed apart in the source
Method: as §2

mouse alpha-synuclein [30] = biological target: T3, mouse alpha-synuclein; test: as above
Method: as §2

[31] = biological target: T7, alpha-synuclein peptide 1-95; test: as above; remark: listed apart in the source
Method: as §2

[32] = biological target: alpha-synuclein peptide 1-112 (human); test: peptide ELISA, coated fragment
Method: as §2

[33] = biological target: alpha-synuclein peptide 1-112 (human); test: ELISA, plate coated with the peptide or protein, antibody titrated, anti-rat HRP, A450; remark: listed apart in the source
Method: as §2

[34] = biological target: T6, alpha-synuclein peptide 1-61; test: as above; remark: listed apart in the source
Method: as §2

mouse alpha-synuclein [35] = biological target: T3, mouse alpha-synuclein; test: as above; remark: listed apart in the source
Method: as §2

[36] = biological target: T7, alpha-synuclein peptide 1-95; test: as above; remark: listed apart in the source
Method: as §2

Binder | IC50 [1] | Bmax (O.D. at 450 nm) (rat alpha-synuclein [2]) | EC50 (rat alpha-synuclein [2]) | Bmax (O.D. at 450 nm) [3] | EC50 [3] | Bmax (O.D. at 450 nm) (mouse alpha-synuclein [4]) | EC50 (mouse alpha-synuclein [4]) | antibody concentration at which ELISA is positive [5] | antibody concentration at which ELISA is positive (mouse alpha-synuclein [13]) | IC50 [14] | EC50 (read off the curve) [16] | antibody concentration at which ELISA is positive [18] | antibody concentration at which ELISA is positive [19] | antibody concentration at which ELISA is positive [20] | antibody concentration at which ELISA is positive [21] | EC50 (read off the curve) (mouse alpha-synuclein [25]) | antibody concentration at which ELISA is positive [32] | also measured
B1 | 30.7 nM | 0.2 OD | 2.97 nM | 1.14 OD | 0.15 nM | 0.16 OD | 5.86 nM | < 40 ng/mL | 640 to 2600 ng/mL | 5.86 nM | ~0.2 µg/mL | > 2600 ng/mL | > 2600 ng/mL | < 40 ng/mL | < 40 ng/mL | – | – | EC50 (read off the curve) [6]: ~0.2 µg/mL; EC50 (read off the curve) [7]: ~0.3 µg/mL; binding result [8]: no binding (tested: 10 µg/ml (1 on the log axis)); binding result [9]: no binding (tested: 10 µg/ml (1 on the log axis)); EC50 (read off the curve) [10]: ~0.2 µg/mL; binding result [11]: no binding (tested: 10 µg/ml (1 on the log axis)); binding result (gamma-synuclein protein): no binding; binding result (beta-synuclein protein): no binding; Kd [12]: 16.2 nM; koff [12]: 0.00169 s⁻¹; kon [12]: 104000 M⁻¹ s⁻¹; Kd [15]: 23.7 nM; koff [15]: 0.00113 s⁻¹; kon [15]: 47500 M⁻¹ s⁻¹; antibody concentration at which ELISA is positive [17]: > 2600 ng/mL
B2 | – | – | – | – | – | – | – | – | – | – | – | > 2600 ng/mL | – | – | < 40 ng/mL | – | – | EC50 (read off the curve) [22]: ~0.3 µg/mL; binding result [23]: no binding (tested: 10 µg/ml (1 on the log axis))
B3 | 37.6 nM | 1.21 OD | 0.3 nM | 1.36 OD | 0.05 nM | – | 0.08 nM | < 40 ng/mL | 40 to 160 ng/mL | 85.7 nM | ~0.06 µg/mL | > 2600 ng/mL | > 2600 ng/mL | < 40 ng/mL | < 40 ng/mL | ~0.08 µg/mL | 160 to 640 ng/mL | EC50 (read off the curve) (rat alpha-synuclein [24]): ~0.4 µg/mL; EC50 (read off the curve) [26]: ~0.08 µg/mL; EC50 (read off the curve) [27]: ~0.07 µg/mL; binding result [28]: no binding (tested: 10 µg/ml (1 on the log axis)); EC50 (read off the curve) [29]: ~0.06 µg/mL; EC50 (read off the curve) (mouse alpha-synuclein [30]): ~0.08 µg/mL; binding result [31]: no binding (tested: 10 µg/ml (1 on the log axis))
B4 | 6.96 nM | 0.5 OD | 1 nM | 1.05 OD | 0.4 nM | 0.58 OD | 0.26 nM | < 40 ng/mL | 40 to 160 ng/mL | 28.1 nM | – | > 2600 ng/mL | > 2600 ng/mL | < 40 ng/mL | < 40 ng/mL | ~0.3 µg/mL | 160 to 640 ng/mL | EC50 (read off the curve) [33]: ~0.3 µg/mL; binding result [34]: no binding (tested: 10 µg/ml (1 on the log axis)); EC50 (read off the curve) (mouse alpha-synuclein [35]): ~0.3 µg/mL; binding result [36]: no binding (tested: 10 µg/ml (1 on the log axis))
